According to US20210077621A1 (published 2021):

Target: human MASP-2 (human, UniProt O00187 16-686)
Assay: cell-based or functional assay

human MASP-2, sequence (O00187 16-686): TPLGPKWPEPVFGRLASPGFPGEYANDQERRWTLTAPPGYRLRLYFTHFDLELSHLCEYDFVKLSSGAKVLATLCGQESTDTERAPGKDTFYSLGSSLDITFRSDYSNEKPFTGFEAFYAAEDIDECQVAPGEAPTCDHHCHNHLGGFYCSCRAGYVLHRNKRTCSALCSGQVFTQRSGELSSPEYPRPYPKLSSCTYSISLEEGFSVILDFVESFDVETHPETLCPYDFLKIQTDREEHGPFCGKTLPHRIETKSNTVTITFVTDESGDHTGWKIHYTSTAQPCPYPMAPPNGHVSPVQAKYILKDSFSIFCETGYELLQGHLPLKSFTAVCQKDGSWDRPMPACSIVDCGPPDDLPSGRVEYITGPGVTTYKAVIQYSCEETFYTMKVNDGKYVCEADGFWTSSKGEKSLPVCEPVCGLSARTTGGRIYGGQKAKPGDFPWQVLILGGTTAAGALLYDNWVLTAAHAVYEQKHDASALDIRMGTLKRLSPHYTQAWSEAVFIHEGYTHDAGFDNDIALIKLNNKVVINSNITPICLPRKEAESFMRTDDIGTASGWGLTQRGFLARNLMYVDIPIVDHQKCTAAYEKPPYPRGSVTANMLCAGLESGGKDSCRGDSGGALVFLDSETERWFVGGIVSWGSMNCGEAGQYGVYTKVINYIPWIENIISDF

B1: 17D20m_d3521N11 (scFv, V domains shown)
VH: QVTLKESGPVLVKPTETLTLTCTVSGFSLSRGKMGVSWIRQPPGKALEWLAHIFSSDEKSYRTSLKSRLTISKDTSKNQVVLTMTNMDPVDTATYYCARIRRGGIDYWGQGTLVTVSS
VL: SYELIQPPSVSVAPGQTATITCAGDNLGKKRVHWYQQRPGQAPVLVIYDDSDRPSGIPDRFSASNSGNTATLTITRGEAGDEADYYCQVWDIATDHVVFGGGTKLTVL
- 1% human serum C3 assay (IC50 nM): 26 nM
- 90% human serum C3 assay (IC50 nM): > 1000 nM
- 90% human serum C4 assay (IC50 nM): 140 nM
